Data published in patent US20180030151A1.
Like-named read-outs stand apart in the source and are kept apart here.

Columns and labels:
[1] = biological target: recombinant human TFPI (tissue factor pathway inhibitor) (human) (UniProt P10646); test: cell-based or functional assay
[2] = biological target: recombinant human TFPI (tissue factor pathway inhibitor) (human) (UniProt P10646)
[3] = biological target: recombinant human TFPI (tissue factor pathway inhibitor) (human) (UniProt P10646); test: cell-based or functional assay; remark: listed apart in the source
[4] = biological target: recombinant human TFPI (tissue factor pathway inhibitor) (human) (UniProt P10646); remark: listed apart in the source
[5] = biological target: recombinant human TFPI (tissue factor pathway inhibitor) (human) (UniProt P10646); remark: listed apart in the source
[6] = biological target: recombinant human TFPI (tissue factor pathway inhibitor) (human) (UniProt P10646); remark: listed apart in the source
[7] = biological target: recombinant human TFPI (tissue factor pathway inhibitor) (human) (UniProt P10646); remark: listed apart in the source

% of Normalized, TF/FVIIa/FX complex assay (FX 5 nM), Ab 12.5 nM [1]: 10.1%
% of Normalized, TF/FVIIa/FX complex assay (FX 5 nM), Ab 25 nM [1]: 42.5%
% of Normalized, TF/FVIIa/FX complex assay (FX 5 nM), Ab 50 nM [1]: 90.6%
% of Normalized, TF/FVIIa/FX complex assay (FX 5 nM), Ab 100 nM [1]: 99.4%
% of Normalized, TF/FVIIa/FX complex assay, Ab 1.56 nM [1]: 13.6%
% of Normalized, TF/FVIIa/FX complex assay, Ab 3.13 nM [1]: 15.7%
% of Normalized, TF/FVIIa/FX complex assay, Ab 6.25 nM [1]: 18.2%
% of Normalized, TF/FVIIa/FX complex assay, Ab 12.5 nM [1]: 23.7%
% of Normalized, TF/FVIIa/FX complex assay, Ab 25 nM [1]: 100%
% of Normalized, TF/FVIIa/FX complex assay, Ab 50 nM [1]: 101%
% of Normalized, TF/FVIIa/FX complex assay, Ab 100 nM [1]: 102%
A405, TF/FVIIa/FX complex assay (FX 5 nM), Ab 1.56 nM [1]: 0.043
A405, TF/FVIIa/FX complex assay (FX 5 nM), Ab 3.13 nM [1]: 0.047
A405, TF/FVIIa/FX complex assay (FX 5 nM), Ab 6.25 nM [1]: 0.05
A405, TF/FVIIa/FX complex assay (FX 5 nM), Ab 12.5 nM [1]: 0.082
A405, TF/FVIIa/FX complex assay (FX 5 nM), Ab 25 nM [1]: 0.344
A405, TF/FVIIa/FX complex assay (FX 5 nM), Ab 50 nM [1]: 0.733
A405, TF/FVIIa/FX complex assay (FX 5 nM), Ab 100 nM [1]: 0.805
A405, TF/FVIIa/FX complex assay, Ab 1.56 nM [1]: 0.125
A405, TF/FVIIa/FX complex assay, Ab 3.13 nM [1]: 0.145
A405, TF/FVIIa/FX complex assay, Ab 6.25 nM [1]: 0.168
A405, TF/FVIIa/FX complex assay, Ab 12.5 nM [1]: 0.218
A405, TF/FVIIa/FX complex assay, Ab 25 nM [1]: 0.918
A405, TF/FVIIa/FX complex assay, Ab 50 nM [1]: 0.929
A405, TF/FVIIa/FX complex assay, Ab 100 nM [1]: 0.937
FXa assay % of FXa alone, 2.5 nM Ab, 10 nM TFPI [2]: 8.7%
FXa assay % of FXa alone, 5 nM Ab, 10 nM TFPI [2]: 33.6%
FXa assay % of FXa alone, 10 nM Ab, 10 nM TFPI [2]: 92.4%
FXa assay % of FXa alone, 20 nM Ab, 10 nM TFPI [2]: 91.4%
FXa assay OD, 2.5 nM Ab, 10 nM TFPI [2]: 0.071
FXa assay OD, 5 nM Ab, 10 nM TFPI [2]: 0.273
FXa assay OD, 10 nM Ab, 10 nM TFPI [2]: 0.75
FXa assay OD, 20 nM Ab, 10 nM TFPI [2]: 0.742
% of Normalized, TF/FVIIa/FX complex assay, Ab 1.56 nM [3]: 15%
% of Normalized, TF/FVIIa/FX complex assay, Ab 3.13 nM [3]: 15.6%
% of Normalized, TF/FVIIa/FX complex assay, Ab 6.25 nM [3]: 17%
% of Normalized, TF/FVIIa/FX complex assay, Ab 12.5 nM [3]: 26.3%
% of Normalized, TF/FVIIa/FX complex assay, Ab 25 nM [3]: 102%
% of Normalized, TF/FVIIa/FX complex assay, Ab 50 nM [3]: 104%
% of Normalized, TF/FVIIa/FX complex assay, Ab 100 nM [3]: 104%
FXa assay % of FXa alone, 2.5 nM Ab, 10 nM TFPI [4]: 9%
FXa assay % of FXa alone, 5 nM Ab, 10 nM TFPI [4]: 61.3%
FXa assay % of FXa alone, 10 nM Ab, 10 nM TFPI [4]: 97.4%
FXa assay % of FXa alone, 20 nM Ab, 10 nM TFPI [4]: 93.6%
FXa assay OD, 2.5 nM Ab, 10 nM TFPI [4]: 0.065
FXa assay OD, 5 nM Ab, 10 nM TFPI [4]: 0.441
FXa assay OD, 10 nM Ab, 10 nM TFPI [4]: 0.701
FXa assay OD, 20 nM Ab, 10 nM TFPI [4]: 0.673
FXa assay % of FXa alone, 2.5 nM Ab, 10 nM TFPI [5]: 6.2%
FXa assay % of FXa alone, 5 nM Ab, 10 nM TFPI [5]: 16.4%
FXa assay % of FXa alone, 10 nM Ab, 10 nM TFPI [5]: 87.5%
FXa assay % of FXa alone, 20 nM Ab, 10 nM TFPI [5]: 84.6%
FXa assay OD, 2.5 nM Ab, 10 nM TFPI [5]: 0.0475
FXa assay OD, 5 nM Ab, 10 nM TFPI [5]: 0.125
FXa assay OD, 20 nM Ab, 10 nM TFPI [5]: 0.644
FXa assay % of FXa alone, 2.5 nM Ab, 10 nM TFPI [6]: 6.6%
FXa assay % of FXa alone, 5 nM Ab, 10 nM TFPI [6]: 35%
FXa assay % of FXa alone, 10 nM Ab, 10 nM TFPI [6]: 98.5%
FXa assay % of FXa alone, 20 nM Ab, 10 nM TFPI [6]: 85.8%
FXa assay OD, 2.5 nM Ab, 10 nM TFPI [6]: 0.032
FXa assay OD, 5 nM Ab, 10 nM TFPI [6]: 0.17
FXa assay OD, 10 nM Ab, 10 nM TFPI [6]: 0.476
FXa assay OD, 20 nM Ab, 10 nM TFPI [6]: 0.415
FXa assay % of FXa alone, 2.5 nM Ab, 10 nM TFPI [7]: 9.2%
FXa assay % of FXa alone, 5 nM Ab, 10 nM TFPI [7]: 87%
FXa assay % of FXa alone, 10 nM Ab, 10 nM TFPI [7]: 95.7%
FXa assay % of FXa alone, 20 nM Ab, 10 nM TFPI [7]: 98.3%
FXa assay OD, 2.5 nM Ab, 10 nM TFPI [7]: 0.0745
FXa assay OD, 5 nM Ab, 10 nM TFPI [7]: 0.702
FXa assay OD, 10 nM Ab, 10 nM TFPI [7]: 0.772
FXa assay OD, 20 nM Ab, 10 nM TFPI [7]: 0.793
B1: mAb2021 (anti-TFPI Ab, Novo Nordisk) (antibody, from another filing, V domains shown)
VH: EVQLVESGGGLVKPGGSLRLSCAASGFTFSNYAMSWVRQTPEKRLEWVATISRSGSYSYFPDSVQGRFTISRDNAKNSLYLQMNSLRAEDTAVYYCARLGGYDEGDAMDSWGQGTTVTVSS
VL: DIVMTQTPLSLSVTPGQPASISCKSSQSLLESDGKTYLNWYLQKPGQSPQLLIYLVSILDSGVPDRFSGSGSGTDFTLKISRVEAEDVGVYYCLQATHFPQTFGGGTKVEIKR
